Test results from publication PMC2905418, “High-affinity consensus binding of target RNAs by the STAR/GSG proteins GLD-1, STAR-2 and Quaking”.
Residue numbers refer to the chain shown, from its start. Names may count otherwise.

Assays:
GLD-1-STAR [1] = target: T1, GLD-1-STAR (C. elegans, UniProt Q17339 135-336); assay: competition FP; settings: probe TGE; 10 mM Tris pH 8.0, 25 mM NaCl, 0.1 mM EDTA, 0.1 mg/mL tRNA, 5 ug/mL heparin, 0.01% IGEPAL CA630, room temperature, 3 h; EMSA gel 6% native, 0.5x TBE, 4 C
T1 sequence: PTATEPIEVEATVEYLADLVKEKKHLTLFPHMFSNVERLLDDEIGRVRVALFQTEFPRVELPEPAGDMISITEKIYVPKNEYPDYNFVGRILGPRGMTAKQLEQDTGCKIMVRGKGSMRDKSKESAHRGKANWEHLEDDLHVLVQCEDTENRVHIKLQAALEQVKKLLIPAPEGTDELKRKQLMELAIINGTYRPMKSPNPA

STAR-2-STAR (C. elegans) [2] = assay: fluorescence polarization; settings: 10 mM Tris pH 8.0, 25 mM NaCl, 0.1 mM EDTA, 0.1 mg/mL tRNA, 5 ug/mL heparin, 0.01% IGEPAL CA630, room temperature, 3 h; EMSA gel 6% native, 0.5x TBE, 4 C
STAR-2-STAR (C. elegans) [3] = assay: EMSA; settings: 10 mM Tris pH 8.0, 25 mM NaCl, 0.1 mM EDTA, 0.1 mg/mL tRNA, 5 ug/mL heparin, 0.01% IGEPAL CA630, room temperature, 3 h; EMSA gel 6% native, 0.5x TBE, 4 C
STAR-2-STAR (C. elegans) [4] = assay: competition FP; settings: probe TGE; 10 mM Tris pH 8.0, 25 mM NaCl, 0.1 mM EDTA, 0.1 mg/mL tRNA, 5 ug/mL heparin, 0.01% IGEPAL CA630, room temperature, 3 h; EMSA gel 6% native, 0.5x TBE, 4 C
GLD-1-STAR [5] = target: T1, GLD-1-STAR; assay: fluorescence polarization; slightly tighter than WT TGE; 10 mM Tris pH 8.0, 25 mM NaCl, 0.1 mM EDTA, 0.1 mg/mL tRNA, 5 ug/mL heparin, 0.01% IGEPAL CA630, room temperature, 3 h; EMSA gel 6% native, 0.5x TBE, 4 C; settings: protein: recombinant; tags: MBP fusion; chain copies: 2; label: 5' 32P (EMSA), 5' fluorescein (FP)
Qk-1-STAR [6] = target: T2, Qk-1-STAR (mouse, UniProt Q9QYS9 7-214); assay: fluorescence polarization; 10 mM Tris pH 8.0, 25 mM NaCl, 0.1 mM EDTA, 0.1 mg/mL tRNA, 5 ug/mL heparin, 0.01% IGEPAL CA630, room temperature, 3 h; EMSA gel 6% native, 0.5x TBE, 4 C; settings: protein: recombinant; tags: MBP fusion; chain copies: 2; label: 5' 32P (EMSA), 5' fluorescein (FP)
T2 sequence: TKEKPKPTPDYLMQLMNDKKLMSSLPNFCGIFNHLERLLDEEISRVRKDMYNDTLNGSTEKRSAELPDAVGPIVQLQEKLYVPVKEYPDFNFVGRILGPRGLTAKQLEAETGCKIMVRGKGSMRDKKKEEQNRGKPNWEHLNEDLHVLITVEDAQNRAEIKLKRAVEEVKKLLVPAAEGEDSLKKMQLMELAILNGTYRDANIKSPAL

Qk-1-STAR [7] = target: T2, Qk-1-STAR; assay: EMSA; 10 mM Tris pH 8.0, 25 mM NaCl, 0.1 mM EDTA, 0.1 mg/mL tRNA, 5 ug/mL heparin, 0.01% IGEPAL CA630, room temperature, 3 h; EMSA gel 6% native, 0.5x TBE, 4 C; settings: protein: recombinant, tags: MBP fusion, chain copies: 2
Qk-1-STAR [8] = target: T2, Qk-1-STAR; assay: competition FP; probe C21A TGE; 10 mM Tris pH 8.0, 25 mM NaCl, 0.1 mM EDTA, 0.1 mg/mL tRNA, 5 ug/mL heparin, 0.01% IGEPAL CA630, room temperature, 3 h; EMSA gel 6% native, 0.5x TBE, 4 C; settings: protein: recombinant; tags: MBP fusion; chain copies: 2
GLD-1-STAR [9] = target: T1, GLD-1-STAR; assay: competition FP; probe TGE; 10 mM Tris pH 8.0, 25 mM NaCl, 0.1 mM EDTA, 0.1 mg/mL tRNA, 5 ug/mL heparin, 0.01% IGEPAL CA630, room temperature, 3 h; EMSA gel 6% native, 0.5x TBE, 4 C; settings: protein: recombinant; tags: MBP fusion; chain copies: 2
GLD-1-STAR [10] = target: T1, GLD-1-STAR; assay: as above; settings: protein: recombinant, tags: MBP fusion, chain copies: 2
GLD-1-STAR [11] = target: T1, GLD-1-STAR; assay: fluorescence polarization; 10 mM Tris pH 8.0, 25 mM NaCl, 0.1 mM EDTA, 0.1 mg/mL tRNA, 5 ug/mL heparin, 0.01% IGEPAL CA630, room temperature, 3 h; EMSA gel 6% native, 0.5x TBE, 4 C; settings: protein: recombinant; tags: MBP fusion; chain copies: 2; label: 5' 32P (EMSA), 5' fluorescein (FP)
Qk-1-STAR [12] = target: T2, Qk-1-STAR; assay: EMSA; second shift (K2); 10 mM Tris pH 8.0, 25 mM NaCl, 0.1 mM EDTA, 0.1 mg/mL tRNA, 5 ug/mL heparin, 0.01% IGEPAL CA630, room temperature, 3 h; EMSA gel 6% native, 0.5x TBE, 4 C; settings: protein: recombinant; tags: MBP fusion; chain copies: 2; label: 5' 32P
Qk-1-STAR [13] = target: T2, Qk-1-STAR; assay: EMSA; first shift (K1); 10 mM Tris pH 8.0, 25 mM NaCl, 0.1 mM EDTA, 0.1 mg/mL tRNA, 5 ug/mL heparin, 0.01% IGEPAL CA630, room temperature, 3 h; EMSA gel 6% native, 0.5x TBE, 4 C; settings: protein: recombinant; tags: MBP fusion; chain copies: 2; label: 5' 32P
GLD-1-STAR [14] = target: T1, GLD-1-STAR; assay: competition FP; slightly tighter than WT 12-mer; 10 mM Tris pH 8.0, 25 mM NaCl, 0.1 mM EDTA, 0.1 mg/mL tRNA, 5 ug/mL heparin, 0.01% IGEPAL CA630, room temperature, 3 h; EMSA gel 6% native, 0.5x TBE, 4 C; settings: protein: recombinant; tags: MBP fusion; chain copies: 2
[15] = label: 5' 32P (EMSA), 5' fluorescein (FP)

## poly-U, one hexamer at 5' end
GLD-1-STAR [1]
  Ki: 110 nM

## poly-U, two hexamers, 12-nt spacing
GLD-1-STAR [1]
  Ki: 4.8 nM

## UAUUUAAUUUCUUAUCUACUCAUAUCUA [WT TGE 28-mer]
STAR-2-STAR (C. elegans) [2]
  Kd: 40 nM
STAR-2-STAR (C. elegans) [3]
  Kd: 36 nM

## AUCUACUCAUAU [WT TGE half-site 12-mer (14-25; A21C in the A21 background)]
STAR-2-STAR (C. elegans) [4]
  IC50 ratio (IC50 TGE/WT half-site): 0.13

## poly-U, two hexamers, 4-nt spacing
GLD-1-STAR [1]
  Ki: 12.2 nM

## AUCUACUAAUAU [C21A (A21) half-site 12-mer]
STAR-2-STAR (C. elegans) [4]
  IC50 ratio (IC50 TGE/C21A 12-mer): 2.7
  IC50 ratio, WT half-site vs mutant probe (IC50 WT half-site/C21A): 20

## AUCUAAUCAUAU [C19A 12-mer (WT background)]
STAR-2-STAR (C. elegans) [4]
  IC50 ratio, WT half-site vs mutant probe (IC50 WT half-site/C19A): 4.2

## poly-U, two hexamers, 0-nt spacing
GLD-1-STAR [1]
  Ki: 25.3 nM

## UAUUUAAUUUCUUAUCUACUAAUAUCUA [C21A TGE 28-mer]
STAR-2-STAR (C. elegans) [2]
  Kd: 5 nM
STAR-2-STAR (C. elegans) [3]
  Kd: 1.2 nM

## poly-U, two hexamers, 2-nt spacing
GLD-1-STAR [1]
  Ki: 22.7 nM

B1: C21A TGE 28-mer (ssRNA)
RNA: UAUUUAAUUUCUUAUCUACUAAUAUCUA
GLD-1-STAR [5]
  binding result: binds
Qk-1-STAR [6]
  Kd: 13 ± 2 nM
Qk-1-STAR [7]; [15]
  Kd: 1.2 ± 0.2 nM

B2: C19A 12-mer (A21 background) (ssRNA)
RNA: AUCUAAUAAUAU
Qk-1-STAR [8]
  binding result: no binding

B3: TGE 1-18 (ssRNA)
RNA: UAUUUAAUUUCUUAUCUA
GLD-1-STAR [9]
  binding signal: 42 fold weaker than TGE

B4: TGE 46-67 (ssRNA)
RNA: AUCUACUCAUAUCUAAUCGUCC
GLD-1-STAR [10]
  Ki: 10.7 ± 2 nM

B5: TGE 14-35 (ssRNA)
RNA: AUCUACUCAUAUCUACUCAUAU
GLD-1-STAR [10]
  Ki: 4.6 ± 0.8 nM

B6: WT TGE half-site 12-mer (14-25; A21C in the A21 background) (ssRNA)
RNA: AUCUACUCAUAU
GLD-1-STAR [9]
  binding signal: ~9 fold weaker than TGE
Qk-1-STAR [8]
  binding result: no binding

B7: TGE 56-67 (ssRNA)
RNA: AUCUAAUCGUCC
GLD-1-STAR [9]
  binding signal: 32 fold weaker than TGE

B8: WT TGE 28-mer (ssRNA)
RNA: UAUUUAAUUUCUUAUCUACUCAUAUCUA
Qk-1-STAR [6]
  Kd: 63 ± 4 nM
GLD-1-STAR [11]
  Kd: 32 ± 3 nM
Qk-1-STAR [7]; [15]
  Kd: 49 ± 2 nM
GLD-1-STAR [10]; [15]
  Ki: 11.1 ± 4 nM

B9: MBP:2-3'm2 (ssRNA)
RNA: GACACACUAACCUCGGUGGAAACUCUUACAU
Qk-1-STAR [12]
  Kd: 199 nM
Qk-1-STAR [13]
  Kd: 69 nM

B10: poly-U 28-mer (ssRNA)
RNA: UUUUUUUUUUUUUUUUUUUUUUUUUUUU
GLD-1-STAR [10]
  binding result: no binding

B11: C21A (A21) half-site 12-mer (ssRNA)
RNA: AUCUACUAAUAU
Qk-1-STAR [8]
  Ki: 46 nM
GLD-1-STAR [14]
  binding result: binds

B12: MBP:2-5'm1 (ssRNA)
RNA: GACACUCGGUGCUCGGUGGAAAAAUAACCAU
Qk-1-STAR [7]; label: 5' 32P, predicted secondary structure (mfold)
  Kd: 498 nM

B13: C21A TGE 5' mutant (ssRNA)
RNA: UAUUCUCUUUCUUAUCUACUAAUAUCUA
Qk-1-STAR [7]; label: 5' 32P
  Kd: 7.1 ± 1 nM

B14: MBP:2 (WT) (ssRNA)
RNA: GACACACUAACCUCGGUGGAAAAAUAACCAU
Qk-1-STAR [12]
  Kd: 269 ± 122 nM
Qk-1-STAR [13]
  Kd: 24.5 ± 5 nM

B15: MBP:2-5'm2 (ssRNA)
RNA: B14 RNA with A6U, A9C, A10U
Qk-1-STAR [7]; label: 5' 32P
  Kd: 100 nM
